The record followed here is patent publication US20240058465A1 (SUTRO BIOPHARMA, published 2024).

The target of one assay is T1, human ROR1 (hROR1) (human, UniProt Q01973 30-937).
T1 construct: On HCT116-hROR1 transfectants, Mino cells or Ntera-2 cells, as the assay of each row says; also called receptor tyrosine kinase like orphan receptor 1
Nature of the assay: flow cytometry, HCT116-hROR1 cells. On the technique in general: Flow cytometry measures light scatter and fluorescence of single cells or particles in a stream.

Assay [1] deals with T2, human ROR1 Frizzled domain (hROR1-Fz) (human, UniProt Q01973 165-305).
T2 construct: Acro Biosystems, made in HEK293
Nature of the assay: SPR Biacore, IgG on anti-Fc, ROR1-Fz analyte. An outline of the steps: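 Test antibodies captured on an anti-Fc surface (CM5 chip), then analyte bound for 180 s with 600 s dissociation at 25° C in HBS-EP+ buffer at 50 μL/min. Human ROR1 ECD, Frizzled or Kringle domain used as analyte; regeneration with 10 mM glycine pH 2.0.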
A general note: SPR reads the build-up and loss of mass on a sensor chip optically.

B1: SRP2196-A10 (antibody, V domains shown)
VH: EVQLVESGGGLVQPGGSLRLSCAASGFNITGYYIHWVRQAPGKGLEWVGYISPNSGATHYADSVKGRFTISADISKNTAYLQMNSLRAEDTAVHYCARDSRRYVRSWDYWGQGTLVTVSS
VL: QAVVTQESALTTSPGETVTLTCRSSTGAVTTSNYANWVQEKPDHLFTGLIGGTNKRAPGVPARFSGSLIGDKAALTITGAQTEDEAIYFCALWYSNLWVFGGGTKLTVL
notes: His/FLAG-tagged IgG1
Consider B1, for which, in the assay with human ROR1 (hROR1), the “Bmax (MFI)” value was 14400 MFI and the Kd – broadly, the free concentration of one partner at which half of the binding sites on the other are occupied at equilibrium, for simple one-to-one binding – was found to be 0.3 nM. Besides, in assay [1], the Kd stood at 2.78 nM; the dissociation rate constant (koff) – broadly, a measure of how fast the partners let go of each other – stood at 0.000479 s⁻¹; the kon (in general, the second-order rate constant of association) came to 172000 M⁻¹ s⁻¹.

B2: SRP2196-A09 (antibody, V domains shown)
VH: EVQLVESGGGLVQPGGSLRLSCAASGFNITGYYIHWVRQAPGKGLEWVGQISPNSGATHYADSVKGRFTISADTSKNTAYLQMNSLRAEDTAVYYCARDSRRYIRSWDYWGQGTLVTVSS
VL: QAVVTQESALTTSPGETVTLTCRSSTGAVTTSNYANWVQEKPDHLFTGLIGGTNKRAPGVPARFSGSLIGDKAALTITGAQTEDEAIYFCALWYSNLWVFGGGTKLTVL
notes: His/FLAG-tagged IgG1
B2: in the assay with human ROR1 (hROR1), the “Bmax (MFI)” value was found to be 14600 MFI and binding was characterised by a dissociation constant (Kd) of 0.2 nM. In assay [1], this molecule returned a Kd of 3.79 nM, a koff of 0.000568 s⁻¹ and a kon of 150000 M⁻¹ s⁻¹.

B3: SRP2196-B03 (antibody, V domains shown)
VH: EVQLVESGGGLAQPGGSLRLSCAASGFNITGYYIHWVRQAPGKGLEWVGYISPNSGATHYADSVKGRFTISADTSKNTAYLQMNSLRAEDTAVYYCARDSRRYVRPFDYWGQGTLVTVSS
VL: QAVVTQESALTTSPGETVTLTCRSSTGAVTTSNYANWVQEKPDHLFTGLIGGTNKRAPGVPARFSGSLIGDKAALTITGAQTEDEAIYFCALWYSNLWVFGGGTKLTVL
notes: His/FLAG-tagged IgG1
For the molecule B3, in the assay with human ROR1 (hROR1), the “Bmax (MFI)” value came out at 15600 MFI and the Kd amounted to 0.6 nM. In assay [1], this molecule came in with a dissociation constant Kd of 7.64 nM, an off-rate (koff) of 0.000945 s⁻¹ and a kon of 124000 M⁻¹ s⁻¹.

B4: SRP2196-B10 (antibody, V domains shown)
VH: EVQLVESGGGLVQPGGSLRLSCAASGFNITGYYIHWVRQAPGKGLEWVGSITPLSGATSKADSVKGRFTISADTSKNTAYLQMNSLRAEDTAVYYCARDSRRYIRSWDYWGQGTLVTVSS
VL: QAVVTQESALTTSPGETVTLTCRSSTGAVTTSNYANWVQEKPDHLFTGLIGGTNKRAPGVPARFSGSLIGDKAALTITGAQTEDEAIYFCALWYSNLWVFGGGTKLTVL
notes: His/FLAG-tagged IgG1; also called Antibody 167
On to B4, for which, in the assay with human ROR1 (hROR1), the “Bmax (MFI)” value came to 14700 MFI and the Kd is 0.3 nM. In assay [1], this molecule showed a dissociation constant (Kd) of 2.61 nM, a koff of 0.000334 s⁻¹ and an on-rate (kon) of 128000 M⁻¹ s⁻¹.

B5: SRP2196-C04 (antibody, V domains shown)
VH: EVQLVESGGGLVQPGGSLRLSCAASGFNITGYYIHWVRQAPGKGLEWVGFIAPLSGSTHNADSVKGRFTISADTSKNTAYLQMNSLRAEDTAVYYCARESRRYVNPWDYWGQGTLVTVSS
VL: QAVVTQESALTTSPGETVTLTCRSSTGAVTTSNYANWVQEKPDHLFTGLIGGTNKRAPGVPARFSGSLIGDKAALTITGAQTEDEAIYFCALWYSNLWVFGGGTKLTVL
notes: His/FLAG-tagged IgG1; also called Antibody 162
Consider B5, for which, in the assay with human ROR1 (hROR1), the “Bmax (MFI)” value was determined as 13800 MFI and binding was put at a Kd of 0.5 nM. Moreover, in assay [1], binding was put at a Kd of 5.35 nM, the koff turned out to be 0.000704 s⁻¹ and the on-rate constant (kon) came to 131000 M⁻¹ s⁻¹.

B6: SRP2196-C03 (antibody, V domains shown)
VH: EVQLVESGGGLVQPGGSLRLSCAASGFNITGYYIHWVRQAPGKGLEWVGQISPNSGSTYSADSVKGRFTISADTSKNTAYLQMSSLRAEDTAVYYCARDSRRYVLSWDYWGQGTLVTVSS
VL: QAVVTQESALTTSPGETVTLTCRSSTGAVTTSNYANWVQEKPDHLFTGLIGGTNKRAPGVPARFSGSLIGDKAALTITGAQTEDEAIYFCALWYSNLWVFGGGTKLTVL
notes: His/FLAG-tagged IgG1
Turning to B6, in the assay with human ROR1 (hROR1), the “Bmax (MFI)” value came to 15000 MFI and binding was put at a Kd of 0.4 nM. For the same molecule, in assay [1], the Kd stood at 3.23 nM, the off-rate (koff) was 0.000461 s⁻¹ and the association rate constant (kon) is 143000 M⁻¹ s⁻¹.

B7: SRP2196-B04 (antibody, V domains shown)
VH: EVQLVESGGGLVQPGGSLRLSCAASGFNITEYYIHWVRQAPGKGLEWVGYISPNSGATYQADSVKGRFTISADTSKNTAYLQMNSLRAEDTAVYYCARDSRRYVRGWDYWGQGTLVTVSS
VL: QAVVTQESALTTSPGETVTLTCRSSTGAVTTSNYANWVQEKPDHLFTGLIGGTNKRAPGVPARFSGSLIGDKAALTITGAQTEDEAIYFCALWYSNLWVFGGGTKLTVL
notes: His/FLAG-tagged IgG1
As to B7, in the assay with human ROR1 (hROR1), the “Bmax (MFI)” value turned out to be 14400 MFI and binding was characterised by a dissociation constant (Kd) of 0.5 nM. In assay [1], this molecule showed a Kd of 2.78 nM, a dissociation rate constant (koff) of 0.000352 s⁻¹ and a kon of 127000 M⁻¹ s⁻¹.

B8: SRP2196-A11 (antibody, V domains shown)
VH: EVQLVESGGGLVQPGGSLRLSCAASGFNITGYYIHWVRQAPGKGLEWVGQISPNSGTTYDADSVKGRFTISADTSKNTAYLQMNSLRAEDTAVYYCARDSRRYVRGWDYWGQGTLVTVSS
VL: QAVVTQESALTTSPGETVTLTCRSSTGAVTTSNYANWVQEKPDHLFTGLIGGTNKRAPGVPARFSGSLIGDKAALTITGAQTEDEAIYFCALWYSNLWVFGGGTKLTVL
notes: His/FLAG-tagged IgG1
In the case of B8, in the assay with human ROR1 (hROR1), the “Bmax (MFI)” value is 14000 MFI and the Kd was under 0.05 nM. Also, in assay [1], the affinity, expressed as Kd, was 4.16 nM; the koff turned out to be 0.000792 s⁻¹; the kon came to 191000 M⁻¹ s⁻¹.

B9: SRP2196-B06 (antibody, V domains shown)
VH: EVQLVESGGGLVQPGGSLRLSCAASGFNITGYYIHWVRQAPGKGLEWVGQISPNSGSTYSADSVKGRFTISADTSKNTAYLQMNSLRAEDTAVYYCARDSRRYVLSWDYWGQGTLVTVSS
VL: QAVVTQESALTTSPGETVTLTCRSSTGAVTTSNYANWVQEKPDHLFTGLIGGTNKRAPGVPARFSGSLIGDKAALTITGAQTEDEAIYFCALWYSNLWVFGGGTKLTVL
notes: His/FLAG-tagged IgG1
Take B9: in the assay with human ROR1 (hROR1), the “Bmax (MFI)” value amounted to 14800 MFI and the Kd is 0.4 nM. In assay [1], this molecule came in with a Kd of 2.98 nM, a koff of 0.000423 s⁻¹ and a kon of 142000 M⁻¹ s⁻¹.

B10: SRP2196-B11 (antibody, V domains shown)
VH: EVQLVESGGGLVQPGGSLRLSCAASGFNITGYYIHWVRQAPGRGLEWVGQISPNSGYTYYADSVKGRFTISADTSKNTAYLQMNSLRAEDTAVYYCARDSRRYIRSWDYWGQGTLVTVSS
VL: QAVVTQESALTTSPGETVTLTCRSSTGAVTTSNYANWVQEKPDHLFTGLIGGTNKRAPGVPARFSGSLIGDKAALTITGAQTEDEAIYFCALWYSNLWVFGGGTKLTVL
notes: His/FLAG-tagged IgG1
Turning to B10, in the assay with human ROR1 (hROR1), the “Bmax (MFI)” value was 14700 MFI and the Kd came to 0.2 nM. Besides, in assay [1], binding was characterised by a dissociation constant (Kd) of 4.36 nM, the koff came out at 0.000597 s⁻¹ and the association rate constant (kon) worked out at 137000 M⁻¹ s⁻¹.

B11: SRP2196-C02 (antibody, V domains shown)
VH: EVQLVESGGGLVQPGGSLRLSCAASGFNITGYHIHWVRQAPGKGLEWVGFISPNSGWTYSADSVKGRFTISADTSKNTAYLQMNSLRAEDTAVYYCARDSRRYVRPFDYWGQGTLVTVSS
VL: QAVVTQESALTTSPGETVTLTCRSSTGAVTTSNYANWVQEKPDHLFTGLIGGTNKRAPGVPARFSGSLIGDKAALTITGAQTEDEAIYFCALWYSNLWVFGGGTKLTVL
notes: His/FLAG-tagged IgG1
For the molecule B11, in the assay with human ROR1 (hROR1), the “Bmax (MFI)” value amounted to 15300 MFI and the dissociation constant (Kd) was 0.6 nM. In assay [1], this molecule showed a Kd of 3.02 nM, a dissociation rate constant (koff) of 0.00036 s⁻¹ and an on-rate (kon) of 119000 M⁻¹ s⁻¹.

B12: SRP2196-B09 (antibody, V domains shown)
VH: EVQLVESGGGLVQPEGSLRLSCAASGFNITEYYIHWVRQAPGKGLEWVGYISPNSGSTYYADSVKGRFTISADTSKNTAYLQMNSLRAEDTAVYYCARDSRRYVRSWDYWGQGTLVTVSS
VL: QAVVTQESALTTSPGETVTLTCRSSTGAVTTSNYANWVQEKPDHLFTGLIGGTNKRAPGVPARFSGSLIGDKAALTITGAQTEDEAIYFCALWYSNLWVFGGGTKLTVL
notes: His/FLAG-tagged IgG1; also called Antibody 160
B12: in the assay with human ROR1 (hROR1), the “Bmax (MFI)” value worked out at 15000 MFI and the Kd amounted to 0.6 nM. For the same molecule, in assay [1], the Kd is 3.28 nM, the off-rate (koff) amounted to 0.000427 s⁻¹ and the kon came to 130000 M⁻¹ s⁻¹.

B13: SRP2196-C01 (antibody, V domains shown)
VH: EVQLVESGGGLVQPGGSLRLSCAASGFNIIGYYIHWVRQAPGKGLEWVGSITPLSGATSKADSVKGRFTISADTSKNTAYLQMNSLRAEDTAVYYCARDSRRYIRSWDYWGQGTLVTVSS
VL: QAVVTQESALTTSPGETVTLTCRSSTGAVTTSNYANWVQEKPDHLFTGLIGGTNKRAPGVPARFSGSLIGDKAALTITGAQTEDEAIYFCALWYSNLWVFGGGTKLTVL
notes: His/FLAG-tagged IgG1
Consider B13, for which, in the assay with human ROR1 (hROR1), the “Bmax (MFI)” value is 15700 MFI and the Kd was determined as 0.3 nM. In assay [1], this molecule returned a dissociation constant Kd of 3.66 nM, a koff of 0.000457 s⁻¹ and a kon of 125000 M⁻¹ s⁻¹.

B14: SRP2196-B02 (antibody, V domains shown)
VH: EVQLVESGGGLVQPGGSLRLSCAASGFNITQYYIHWVRQAPGKGLEWVGYISPNSGQTYDADSVKGRFTISADTSKNTAYLQMNSLRAEDTAVYYCARDSRRYVRSWDYWGQGTLVTVSS
VL: QAVVTQESALTTSPGETVTLTCRSSTGAVTTSNYANWVQEKPDHLFTGLIGGTNKRAPGVPARFSGSLIGDKAALTITGAQTEDEAIYFCALWYSNLWVFGGGTKLTVL
notes: His/FLAG-tagged IgG1
Take B14: in the assay with human ROR1 (hROR1), the “Bmax (MFI)” value was 14900 MFI and the dissociation constant (Kd) was determined as 0.3 nM. In assay [1], this molecule had a Kd of 1.39 nM, a dissociation rate constant (koff) of 0.000227 s⁻¹ and a kon of 163000 M⁻¹ s⁻¹.

B15: SRP2196-B01 (antibody, V domains shown)
VH: EVQLVESGGGLVQPGGSLRLSCAASGFNITGYYIHWVRQAPGKGLEWVGQISPNSGYTYYADSVKGRFTISADTSKNTTYLQMNSLRAEDTAVYYCARDSRRYVRSWDYWGQGTLVTVSS
VL: QAVVTQESALTTSPGETVTLTCRSSTGAVTTSNYANWVQEKPDHLFTGLIGGTNKRAPGVPARFSGSLIGDKAALTITGAQTEDEAIYFCALWYSNLWVFGGGTKLTVL
notes: His/FLAG-tagged IgG1
As for B15, in the assay with human ROR1 (hROR1), the “Bmax (MFI)” value amounted to 15300 MFI and the dissociation constant Kd was determined as 0.3 nM. In addition, in assay [1], the Kd amounted to 3.06 nM, the koff came to 0.000401 s⁻¹ and the on-rate (kon) came to 131000 M⁻¹ s⁻¹.
